Laboratory results: patent US20260248969A1, “PEPTIDE MULTIMER PRODUCTS AND METHODS” (REGENTS OF THE UNIVERSITY OF MICHIGAN, priority 2023, published 2026)
“Also recorded” adds a separate entry of the source. No end group written: not given here.

Tests used:
[1] = system: human CCA-156 HCC cells; assay: Binding of Cy5.5-labeled peptides to CCA-156 HCC cells, confocal fluorescence; assay type: cell-based; settings: 5 μM, 5 min on ice
Protocol: HCC patient-derived cells (CCA-156) were generated from fresh, de novo tumor specimens obtained from patients undergoing liver transplant.
Fresh tissue was cut into ~1 mm^2 pieces in ice-cold DPBS. and 3-4 pieces were placed in one well of a 12-well plate. Minced tissue was cultured using Matrigel with growth media containing 10 μM ROCK inhibitor Y27632 (ATCC) and 5 μM TGF-β inhibitor (A83-01, Sigma-Aldrich) diluted to 8 mg/mL. An HCC cell line and a corresponding organoid were successfully generated. The cell line was denoted CCA-156 to reflect the specimen ID.
Approximately 10^3 CCA-156 cells were grown on the cover glass in a 24-well plate to ~90% confluence. The cells were washed with PBS twice and incubated with 5 μM of either Cy5.5-labeled peptide multimer or peptide monomer for 5 min on ice. The cells were then washed with PBS for 3X, fixed with 4% paraformaldehyde (PFA) in PBS for 15 min, washed with PBS for twice, then mounted on glass slides with ProLong Gold reagent containing DAPI (Invitrogen).

[2] = system: orthotopic HCC PDX tumors; assay: In vivo competition for binding (blocking before Gd-DOTA-labeled peptide multimer), MR imaging; parameters: species or system mouse; settings: unlabeled blocker given prior to labeled multimer; 0.5 hour post-injection
Protocol: In vivo competition for binding to GPC3, CD44, and EpCAM was evaluated by administering unlabeled peptide monomers prior to Gd-DOTA labeled peptide multimer. Single unlabeled peptide monomers (ALL*, WKG*, and HPD*) at a concentration of 1.5 mM in 100 μL of PBS, or a mixture of all three peptide monomers (multi-block) at a concentration of 1 mM in 100 μL of PBS each were administered 30 minutes prior to the Gd-DOTA-labeled peptide multimer, FIG. 14A. T1-weighted MR images were collected at the peak uptake time of 0.5 hour after the peptide multimer injection. The T/B ratio of MR intensity was calculated using regions of interest, and the adjacent non-tumor region with equal area of the tumor region was defined as the background.

[3] = target: T1, EpCAM (Homo sapiens, UniProt P16422); assay: Co-localization of labeled multimer and anti-EpCAM antibody on resected human HCC PDX tumor specimen; assay type: binding; settings: merged image
T1 construct: from tissue; host or cells: human HCC patient-derived xenograft tumor grown orthotopically in NSG mouse liver
T1 sequence (P16422 24-314): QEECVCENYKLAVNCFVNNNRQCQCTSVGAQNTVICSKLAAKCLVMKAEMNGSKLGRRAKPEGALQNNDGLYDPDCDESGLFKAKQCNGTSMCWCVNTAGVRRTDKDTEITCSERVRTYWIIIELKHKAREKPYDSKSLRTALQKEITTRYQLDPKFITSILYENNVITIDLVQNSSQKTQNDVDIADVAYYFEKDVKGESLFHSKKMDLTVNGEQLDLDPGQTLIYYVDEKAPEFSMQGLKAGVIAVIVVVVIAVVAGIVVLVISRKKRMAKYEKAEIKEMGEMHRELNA
Source text: (§1) After completion of in vivo imaging, specific multimer binding to the PDX HCC tumor was validated ex vivo using confocal microscopy. These studies confirmed the in vivo imaging results and expression of the expected targets ex vivo. Increased fluorescence intensity is seen at the cell surface (arrow) for the IRDye800-labeled multimer binding to HCC tumor, FIG. 8A. Adjacent sections were stained with antibodies specific for GPC3, CD44, and EpCAM, FIG. 8B-D. Co-localization of multimer and antibody binding is shown on the merged image, FIG. 8E. A correlation of ρ=0.69, 0.65, and 0.70 was measured to characterize binding co-localization by the multimer with the GPC3, CD44, and EpCAM antibodies, respectively.
(§2) Orthotopic HCC PDX tumors were resected and sectioned for immunofluorescence.

[4] = target: T2, GPC3 (Homo sapiens, UniProt P51654); assay: Co-localization of multimer and anti-GPC3-AF532 on human liver tissue microarray; assay type: binding
T2 construct: from tissue; host or cells: human HCC patient-derived xenograft tumor grown orthotopically in NSG mouse liver
T2 sequence (P51654 25-554): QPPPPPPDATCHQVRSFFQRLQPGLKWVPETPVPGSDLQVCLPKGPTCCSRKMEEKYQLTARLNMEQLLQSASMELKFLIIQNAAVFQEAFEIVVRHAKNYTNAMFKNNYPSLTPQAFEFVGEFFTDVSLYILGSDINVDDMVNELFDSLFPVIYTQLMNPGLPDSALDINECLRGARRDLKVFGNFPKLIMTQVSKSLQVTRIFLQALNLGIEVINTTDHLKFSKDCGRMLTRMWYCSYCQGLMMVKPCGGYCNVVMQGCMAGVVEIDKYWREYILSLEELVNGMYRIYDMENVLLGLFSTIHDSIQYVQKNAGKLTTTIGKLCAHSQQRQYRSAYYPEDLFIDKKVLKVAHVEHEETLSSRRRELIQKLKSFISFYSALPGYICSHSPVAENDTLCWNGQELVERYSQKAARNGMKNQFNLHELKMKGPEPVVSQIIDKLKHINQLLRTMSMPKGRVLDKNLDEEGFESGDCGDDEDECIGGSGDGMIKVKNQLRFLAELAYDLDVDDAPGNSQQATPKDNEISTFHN
Protocol: (§3) Binding of Cy5.5-labeled peptide multimer was evaluated using human HCC specimens ex vivo. All experiments using human tissues were approved by the Michigan Medicine IRB (HUM00122873). A tissue microarray (TMA) was generated from n=120 liver specimens provided by the archived tissue bank in the Department of Pathology. Paraffin-embedded (FFPE) section slide was deparaffinized and conducted through antigen retrieval. Blocking procedure was performed with 5% goat serum for 1 hour at room temperature. The slide was first stained with the Cy5.5 labeled peptide multimer at 5 μM for 5 min at room temperature. The section was then incubated with primary antibodies using 1:200 dilution of primary recombinant rabbit anti-GPC3 antibody (#ab95363, Abcam), 1:500 dilution of primary recombinant mouse anti-CD44 antibody (#3570, Cell Signaling Technology), and AF594-labeled primary anti-EpCAM (#7319, Cell Signaling Technology) overnight at 4° C. After washing with 2% BSA in PBST, section was incubated with 1:500 dilution of AF488-labeled secondary goat anti-mouse IgG antibody (#ab150113, Abcam) and 1:500 dilution of AF532-labeled secondary goat anti-rabbit IgG antibody (#A-11029, Life Technologies) for 1 hour at room temperature, and mounted with Prolong Gold reagent containing DAPI at last (Invitrogen). The fluorescence images were collected using Leica Stellaris 5 (inverted), excitation at Aex=670 nm for the peptide multimer, and λex=488, 532, 594 nm for CD44, GPC3 and EpCAM antibody, respectively. Fluorescence intensities were quantified using Leica LAS AF Lite software. All slides were evaluated by an expert liver pathologist.

[5] = system: CD44; assay: Co-localization of labeled multimer and anti-CD44 antibody binding to HCC patient-derived organoids (PDOs); parameters: species or system human; settings: merged images
Protocol: (§4) PDOs were established from human HCC specimens. These immortalized human tissues provided clinically relevant target expression levels and genetic heterogeneity seen in the HCC patient population. Short tandem repeat analysis was performed to authenticate human genomic expression and characterize genetic variations. Images collected using the candidate IRDye800-labeled multimer, AF488-labeled monoclonal antibodies specific for GPC3, CD44, and EpCAM, and merged are shown, FIG. 2A-C. Strong fluorescence intensity can be seen at the cell surface (arrows). Multimer and antibody co-localization was measured using correlation analysis.
(§5) For a co-localization assay, patient-derived organoids were recovered from Matrigel and fixed by 4% PFA for 30 min. Permeabilization and blocking were performed using 5% serum (v/v) and 1% Triton X-100 (v/v) in PBS for 3 hours at room temperature. Organoids were then incubated with 1:200 dilution of primary recombinant rabbit anti-GPC3 antibody (#ab95363, Abcam), 1:500 dilution of primary recombinant mouse anti-CD44 antibody (#3570, Cell Signaling Technology), and AF594-labeled primary anti-EpCAM (#7319, Cell Signaling Technology) at 4° C. overnight. […] Confocal fluorescence images were obtained on Leica Stellaris 5 (inverted) confocal microscope using a 63X oil-immersion objective. Fluorescence intensities were quantified using Leica LAS AF Lite software.

[6] = system: human liver specimens; assay: Multimer staining of human liver specimens ex vivo (tissue microarray), fluorescence intensity and ROC
Protocol: as §3

[7] = target: T2, GPC3; assay: Co-localization of labeled multimer and anti-GPC3 antibody binding to HCC patient-derived organoids (PDOs); settings: merged images
Protocol: as §4, §5

[8] = target: T1, EpCAM; assay: Co-localization of multimer and anti-EpCAM-AF594 on human liver tissue microarray; assay type: binding
Protocol: as §3

[9] = target: T1, EpCAM; assay: Co-localization of labeled multimer and anti-EpCAM antibody binding to HCC patient-derived organoids (PDOs); settings: merged images
Protocol: as §4, §5

[10] = target: T3, CD44 (Homo sapiens, UniProt P16070); assay: Co-localization of multimer and anti-CD44-AF488 on human liver tissue microarray; assay type: binding
T3 construct: from tissue; host or cells: human HCC patient-derived xenograft tumor grown orthotopically in NSG mouse liver
T3 sequence (P16070 21-742): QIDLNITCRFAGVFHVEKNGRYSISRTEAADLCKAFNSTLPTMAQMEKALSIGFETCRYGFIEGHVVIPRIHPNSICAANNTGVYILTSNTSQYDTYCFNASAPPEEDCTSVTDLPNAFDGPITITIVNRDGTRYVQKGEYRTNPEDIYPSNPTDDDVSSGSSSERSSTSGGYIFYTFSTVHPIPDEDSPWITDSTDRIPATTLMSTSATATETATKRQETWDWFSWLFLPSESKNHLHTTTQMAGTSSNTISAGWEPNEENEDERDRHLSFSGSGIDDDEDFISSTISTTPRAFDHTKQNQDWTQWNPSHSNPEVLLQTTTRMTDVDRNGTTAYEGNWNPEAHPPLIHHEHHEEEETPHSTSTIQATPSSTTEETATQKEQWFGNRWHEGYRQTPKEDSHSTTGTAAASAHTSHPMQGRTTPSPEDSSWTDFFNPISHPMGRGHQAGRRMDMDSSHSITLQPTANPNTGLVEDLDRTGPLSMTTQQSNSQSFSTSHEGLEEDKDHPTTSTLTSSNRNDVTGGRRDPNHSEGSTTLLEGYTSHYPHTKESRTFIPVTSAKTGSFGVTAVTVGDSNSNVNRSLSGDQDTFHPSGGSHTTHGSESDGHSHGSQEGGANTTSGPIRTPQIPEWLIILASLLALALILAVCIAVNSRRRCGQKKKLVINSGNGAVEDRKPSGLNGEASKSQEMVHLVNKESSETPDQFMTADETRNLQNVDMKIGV
Protocol: as §3

[11] = target: T3, CD44; assay: Co-localization of labeled multimer and anti-CD44 antibody on resected human HCC PDX tumor specimen; assay type: binding; settings: merged image
T3 sequence (P16070 21-222 limits assumed): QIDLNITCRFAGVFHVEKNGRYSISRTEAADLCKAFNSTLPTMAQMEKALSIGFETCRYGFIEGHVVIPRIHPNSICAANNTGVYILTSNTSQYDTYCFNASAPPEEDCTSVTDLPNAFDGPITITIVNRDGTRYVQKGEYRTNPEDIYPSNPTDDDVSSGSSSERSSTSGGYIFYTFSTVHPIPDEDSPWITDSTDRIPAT
Source text: as §1, §2

[12] = target: T2, GPC3; assay: Co-localization of labeled multimer and anti-GPC3 antibody on resected human HCC PDX tumor specimen; assay type: binding; settings: merged image
Source text: as §1, §2

ALL*-Cy5.5: Cy5.5-labeled GPC3-specific peptide monomer ALLANHEELFQT (SEQ ID NO: 1) (also: Cy5.5 label, site not given here)
binding to cell surface of CCA-156 cells (fluorescence) [1]: minimal signal

ALLANHEELFQT (GPC3-specific peptide) [ALL*]
T/B ratio of Gd-DOTA-labeled peptide multimer after blocking [2]: reduced

Cy5.5-labeled peptide multimer: peptide multimer of GPC3-, CD44- and EpCAM-specific peptides labeled with Cy5.5 (peptide 1 ALLANHEELFQT; peptide 2 WKGWSYLWTQQA; peptide 3 HPDMFTRTHSHN; not fully specified; also: peptide multimer, linkage not given here, Cy5.5 label, site not given here)
Pearson's correlation coefficient, multimer with EpCAM antibody [3]: 0.70 | binding to cell surface of CCA-156 cells (fluorescence) [1]: Strong fluorescence signal; also recorded: strong binding | Pearson's correlation coefficient, multimer and GPC3 antibody ([4]; HCC): 0.76 | Pearson's correlation coefficient, multimer and GPC3 antibody ([4]; adenoma): 0.82 | Pearson's correlation coefficient, multimer and GPC3 antibody ([4]; cirrhosis): 0.69 | Pearson's correlation coefficient, multimer and GPC3 antibody ([4]; normal liver): 0.74 | correlation of co-localization, multimer and CD44 antibody [5]: 0.80 | quantified fluorescence intensity, mean±SD ([6]; HCC): 8.4±1.0 | quantified fluorescence intensity, mean±SD ([6]; adenoma): 5.8±0.4 | quantified fluorescence intensity, mean±SD ([6]; cirrhosis): 6.4+0.7 | fluorescence intensity for HCC versus cirrhosis, adenoma, and normal ([6]; n=120 specimens): significantly greater | quantified fluorescence intensity, mean±SD ([6]; normal): 6.4±0.4 | correlation of co-localization, multimer and GPC3 antibody [7]: 0.74 | Pearson's correlation coefficient, multimer and EpCAM antibody ([8]; HCC): 0.81 | Pearson's correlation coefficient, multimer and EpCAM antibody ([8]; adenoma): 0.83 | Pearson's correlation coefficient, multimer and EpCAM antibody ([8]; cirrhosis): 0.66 | Pearson's correlation coefficient, multimer and EpCAM antibody ([8]; normal liver): 0.83 | correlation of co-localization, multimer and EpCAM antibody [9]: 0.75 | Pearson's correlation coefficient, multimer and CD44 antibody ([10]; HCC): 0.70 | Pearson's correlation coefficient, multimer and CD44 antibody ([10]; adenoma): 0.74 | Pearson's correlation coefficient, multimer and CD44 antibody ([10]; cirrhosis): 0.60 | Pearson's correlation coefficient, multimer and CD44 antibody ([10]; normal liver): 0.69 | Pearson's correlation coefficient, multimer with CD44 antibody [11]: 0.65 | Pearson's correlation coefficient, multimer with GPC3 antibody [12]: 0.69

HPD*-Cy5.5: Cy5.5-labeled EpCAM-specific peptide monomer HPDMFTRTHSHN (SEQ ID NO: 7) (also: Cy5.5 label, site not given here)
binding to cell surface of CCA-156 cells (fluorescence) [1]: minimal signal

HPDMFTRTHSHN (EpCAM-specific peptide) [HPD*]
T/B ratio of Gd-DOTA-labeled peptide multimer after blocking [2]: reduced

IRDye800-labeled multimer: GPC3-, CD44- and EpCAM-specific peptide monomers arranged via tri-lysine linker and PEG3 linkers, labeled with IRDye800 (peptide 1 ALLANHEELFQT; peptide 2 WKGWSYLWTQQA; peptide 3 HPDMFTRTHSHN; not fully specified; also: monomers arranged via tri-lysine linker and PEG3 linkers, IRDye800 label, site not given here)
Pearson's correlation coefficient, multimer with EpCAM antibody [3]: 0.70 | correlation of co-localization, multimer and CD44 antibody [5]: 0.80 | correlation of co-localization, multimer and GPC3 antibody [7]: 0.74 | correlation of co-localization, multimer and EpCAM antibody [9]: 0.75 | Pearson's correlation coefficient, multimer with CD44 antibody [11]: 0.65 | Pearson's correlation coefficient, multimer with GPC3 antibody [12]: 0.69

WKG*-Cy5.5: Cy5.5-labeled CD44-specific peptide monomer WKGWSYLWTQQA (SEQ ID NO: 6) (also: Cy5.5 label, site not given here)
binding to cell surface of CCA-156 cells (fluorescence) [1]: minimal signal

WKGWSYLWTQQA (CD44-specific peptide) [WKG*]
T/B ratio of Gd-DOTA-labeled peptide multimer after blocking [2]: reduced
